Results on 5 molecules are retold here after article PMC8764033 (2022).

The target in test [1] is T1, WD40 domain of Cdh1 from Saccharomyces cerevisiae (aa 241–550), for anisotropy (S. cerevisiae, UniProt P53197 241-550).
T1 chain: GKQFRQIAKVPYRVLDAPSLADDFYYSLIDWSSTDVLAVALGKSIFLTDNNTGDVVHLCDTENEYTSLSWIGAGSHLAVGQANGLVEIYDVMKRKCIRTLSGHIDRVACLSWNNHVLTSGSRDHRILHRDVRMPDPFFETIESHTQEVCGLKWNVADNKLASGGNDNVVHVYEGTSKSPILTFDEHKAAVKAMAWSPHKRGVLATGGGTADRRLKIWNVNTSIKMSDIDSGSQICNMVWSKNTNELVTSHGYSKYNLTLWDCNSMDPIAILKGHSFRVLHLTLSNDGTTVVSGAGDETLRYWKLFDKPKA
As to the kind of experiment: FP.

Test [2] has as its target T1, WD40 domain of Cdh1 from Saccharomyces …. Briefly: FP; + unlabeled Hsl1 D box mutant peptide (100 uM).
The target is the same in test [3]. As to the kind of experiment: FP; + unlabeled Hsl1 D box peptide (100 uM).
In test [4] the target is T2, WD40 domain of human Cdc20 (aa 162–484), for anisotropy (human, UniProt Q12834 162-484).
T2 chain: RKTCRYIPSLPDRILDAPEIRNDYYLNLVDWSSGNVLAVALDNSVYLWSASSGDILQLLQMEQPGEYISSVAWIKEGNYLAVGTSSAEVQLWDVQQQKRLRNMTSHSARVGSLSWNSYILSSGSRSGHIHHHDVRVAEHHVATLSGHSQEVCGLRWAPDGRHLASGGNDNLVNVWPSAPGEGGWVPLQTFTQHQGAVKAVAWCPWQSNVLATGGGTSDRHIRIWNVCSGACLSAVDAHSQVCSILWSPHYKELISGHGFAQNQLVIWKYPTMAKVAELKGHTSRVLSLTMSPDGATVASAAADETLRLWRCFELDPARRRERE
As to the kind of experiment: FP.

In test [5] the target is T1, WD40 domain of Cdh1 from Saccharomyces …. As to the kind of experiment: FP; + unlabeled Hsl1 KEN peptide (100 uM).
Test [6] has the same target. As to the kind of experiment: FP; + unlabeled Hsl1 KEN mutant peptide (100 uM).

Values joined by “and” are separate entries in the source; they are usually repeats but may differ in a detail not shown here. Equal entries are not always repeated. Where no end group is shown, it is not given here. Cy5 = cyanine-5 fluorescent label

In general, Kd refers to the constant that tells how readily two partners part at equilibrium. Consider EQKPKAAAASDITASFNKMNK-Cy5 [Cy5-labeled Hsl1 D box mutant peptide], for which, in test [1], the Kd was more than 30.6 µM.

In the case of GVSTNKENEGPEYPTKIEK-Cy5 [Cy5-labeled Hsl1 KEN peptide], the Kd in test [2] is 16 µM and 11 µM; in test [3], 3.4 µM; in test [1] it was 22 µM.

EQKPKRAALSDITNSFNKMNK-Cy5 [Cy5-labeled Hsl1 D box peptide]: the Kd in test [4] is 2500 nM; in test [5], 1100 nM and 1200 nM; in test [6], 2900 nM; in test [1], 2.9 µM.

QDSKPRRALTDVPVNNNPLSQK-Cy5 [Cy5-labeled Clb5 D box peptide] had a Kd in test [1] of more than 30.6 µM.

On to AQQQGRLPLAAKDNNRSKSFIK-Cy5 [Cy5-labeled ySecurin D box peptide], for which the Kd in test [1] is more than 30.6 µM.
